# Source: the domain aggregation screens of Martell et al. (2025)
# Assay: soluble fraction after stress (log2 fold change); higher = more stays soluble; pooled small domains, quantitative proteomics
# Conditions: stress: pH 4
# Procedure, shortened: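 Values are on a log2 scale, where higher means more of the domain stayed soluble after pH 4 stress. They are fold changes in the soluble amount of each domain from pooled custom libraries, measured by high-throughput quantitative proteomics. The fold change is taken to reflect aggregation propensity.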
row,Sequence,soluble fraction (log2)
1,HMTGMEAAEFGKRIMKLRKQKGMTQSKLAEQINVSNKAISRWETGEGFPEITLLKPLAKALGTTVDELFGE,-0.271
2,HMTGMEKFLTIPSIRESTAAFEREYLIHYLDENAWQVSKTAAAIGIERTTLYKKMKQLGIVPIEE,-0.166
3,HMTGNWRQMHKVKSKETIYGIAKEYGITVDELTKANPGMEAPGYTLKKGDYIFIPYATADANV,0.0315
4,HMTGQEGLIGAHGVALTRLSNEEGEVKVQGEIWQARSDQEVAKGASIEVVHVDGLVLTVRPQH,0.175
5,HMTGQLTEEELKQRQERAMSNPEIQGILSDPVMRQVLQDMSTDPKAAAEHQRNPTIMAKIQKLINAGIVQV,-0.0717
6,HMTGSETLQDIFAHLEAGTVRTALSLIPRLDAVEYEQNRQRIAELAGVRPSALDDLRKQAKREEN,-0.434
7,HMTGTKEQQVVMLNNILQKQLQAFELQGKRDYPMVTMKNMYNTLSKMVENAGLQTVESYFVDPIKGQQM,-0.266
8,HMTGVEAIERYLASGVIPGVGPVLAKRLVERFGARTLEVIEDSPRRLTQVPGIGRQKARQIHQALKAQRE,0.0508
9,HMTGYVMIRVDGLSLEKFLNMAAEAGVRVSDVRRASYTVLYAVVSPRDLKKLQSVAPEKYTVTVR,-0.23
10,HMTHANAALTPRHRLKVARLVVDEGWPVSEVAARFQVSWPTVKRWADRYRAGQSMQDRSSRP,0.228
11,HMTHEAEDLNALRMMVRDPIFSSDEPDLQQLRGAVAHAPQFVDRFKELYNDYQRLAEFVQNSL,-1
12,HMTHFRTDERRREILSTIEADGRVSVSEIASRFDVSPVTIRSDLNYLAIQGKLKRVRGGAVLLDH,0.275
13,HMTIDNPESQKIMDMVPFFFQSRNYDEAIEALTYVIEQEPQFSEAYNKRATFYFMMGDLENSMKDIEITLA,-0.568
14,HMTIGIGKSLDFNTSGEKAYRIYNFKGAYVGTFKASDMTSLKNEVQKSNVKAGAYMVRSLDGHVNRLIEIK,≥ 0.43
15,HMTIGKIVNIIEGSYANVRSAPDQNSEPIGRAYPGDAFLVDPLGSSGDWVKVTYEGQSGFIFQAYISV,-1.28
16,HMTIGKRIKRRRIELKMSIDSLARTIGKDRSTVYRYESGAIDKVSSDVLAKLATALNTTPAYLIGL,0.22
17,HMTIKNHIDEILKKEPFILENIKNGLINISALARQIEPQLSRKVGKKLNVNAIIMTIKRMEIDQLNK,0.0888
18,HMTIPNGTVVNGTVLEAREAGAYLVRVAGQTLTAQANLPLLVGQHFRAVWDSSGDIPVLRLSDAEQALLGK,-0.121
19,HMTIPRLPFAFAKRFGIVLDNRPSGFVAAHKEGLLPHVLLEVQRFLGDAYTLEVVSDDDFERILGQVYQT,-2.03
20,HMTIPSYAEAVRYVRRQPRINTSTLADGLGIRWSLALDYLERMARSGVVGAIEDDGWWPVAR,0.329
21,HMTIRIPEEEYLTRAKRAAQMTAERGLDALFLFGSEGDFQNVRYFTSVTPIWERLGVVITASGKAAMLTGP,-0.0548
22,HMTIRPEDVELVPAEDGYMQGDVVSNIFKGVHYELEVKANGYDWMVHTTKYVEVGSHVGIKVIPFNIQV,0.22
23,HMTISPYTKDDFLKGTKPFEDVYAHKADPFVHDRALEQMTIWAKSVGVNGFKKLYKAYIDSLRIKNKEI,0.00637
24,HMTKAGVDAWTRGDYAAAVKEWQAQAAKGDADAIFNLGQAFKLGKGVPQDLIKAEQLFGQAAA,-0.466
25,HMTKDEIIIQSIIDAAKKLMQQYGLNKTTMEDIAKEAGKGKSTLYHYFKSKEEIFDQVINQEID,-1.06
26,HMTKEEFLDEIKKELGFMPYEEVIKAEKYFESYFNGSEADEKVIERFGSPKYAAQNYYRTHVAN,0.0371
27,HMTKEEFLYELKKELSALDSAEATAYNLRYYSDYIDAEIAKGRSEQEVLDELGNPRWLVNSIKESG,-0.521
28,HMTKGDRIKARREELGLTQTDLAEAISSTKQNIYKYENNIISNIPSDKVEAIAEVLKISPAYLMGWGDE,-0.594
